This test addresses b1b2 domain of NRP-1 (recombinant). The experiment in a line: pull-down; Ni-NTA magnetic agarose beads coated with the b1b2 domain of NRP-1; fluorescent HLPNs incubated 1 h at room temperature with uPA added; 50 mM Tris pH 7.5, 1 M NaCl, 5 mM imidazole, 0.05% NP40; eluted with 400 mM imidazole, fluorescence of the eluate read.

Where no end group is shown, it is not given here.

In the case of AKRGAR-OH (also: FAM label, site not given here, conjugated to surface of HLPNs) [uPA-cleaved LinTT1 peptide with exposed CendR motif, on HLPNs], the fold increase of binding by uPA treatment (against no uPA) was found to be 4 fold.

These data come from article PMC12519261.
